Laboratory results from article PMC8017197 (Frontiers in Immunology, 2021).

Biological target: T1, linear (M1)-tetraubiquitin (UniProt P0CG48 1-76; P0CG48 1-76; P0CG48 1-76; P0CG48 1-76)
T1 construct: ubiquitin, first of four units joined head to tail (Met1-linked); ubiquitin, second unit; ubiquitin, third unit; ubiquitin, fourth unit; Four ubiquitins on one chain, N-terminal Met1 linked to the C-terminus of the unit before; also called linear (M1)-linked tetraubiquitin; source: bought: Boston Biochem
T1 sequence (P0CG48 1-304, one chain of several): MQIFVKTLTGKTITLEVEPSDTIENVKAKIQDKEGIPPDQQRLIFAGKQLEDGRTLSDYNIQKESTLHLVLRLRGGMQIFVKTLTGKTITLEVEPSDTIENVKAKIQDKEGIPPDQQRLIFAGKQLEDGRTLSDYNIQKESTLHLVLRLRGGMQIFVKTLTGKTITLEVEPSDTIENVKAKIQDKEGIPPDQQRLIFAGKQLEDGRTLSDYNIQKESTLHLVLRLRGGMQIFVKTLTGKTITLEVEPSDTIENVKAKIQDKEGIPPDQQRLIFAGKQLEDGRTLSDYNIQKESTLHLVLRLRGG
Test: pull-down; GST-fusion proteins with tetraubiquitin (3.4 μg), then glutathione Sepharose at 4°C 1 h; bound ubiquitin detected by anti-ubiquitin immunoblotting
Settings: both partners purified

B1: GST-fused UBZ domain (a.a. 394-446) of NDP52 (domain or fragment, human, UniProt Q13137 394-446, looked up)
chain: IKKCPICKADDICDHTLEQQQMQPLCFNCPICDKIFPATEKQIFEDHVFCHSL
notes: NDP52 (CALCOCO2), human, UBZ domain, a.a; Vector pGEX6p-1; also called GST-fused NDP52-UBZ domain; source: E. coli BL21 (DE3)pLysS, purified with a GSTrap column
B1: binds.
